What all share (type): biochemical
Data set [1] is described as follows: HTP-analysis of yeast culture supernatants, no challenge (MUGal hydrolysis). As to conditions: activity of the variant/activity of WT GLA (SEQ ID NO: 5), yeast supernatant. The gist of the method:
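GLA variants expressed in yeast INVSc1, secreted into SD-Ura broth over 66-84 h at 30° C; clarified supernatants tested without challenge. Supernatant mixed with McIlvaine buffer pH 4.8 and 2 mM MUGal (citrate/KCl, pH 4.6), 37° C for 30-180 min, carbonate-quenched, fluorescence Ex 355/Em 448 nm.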

Data set [2] can be described thus: HTP-analysis of supernatants pretreated with base (MUGal hydrolysis). As to conditions: challenge at pH 7.1; activity of the variant/activity of WT GLA (SEQ ID NO: 5); yeast supernatant. The gist of the method:
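GLA variants were secreted by transformed INVSc1 yeast grown 66-84 h at 30° C. Supernatants were exposed to neutral-to-basic buffers (pH 7.0-9.7) at 37° C for 1-18 h, then assayed with MUGal in acidic citrate/McIlvaine buffer, with fluorescence read after quenching.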

The nature of data set [3]: HTP-analysis of supernatants pretreated with acid (MUGal hydrolysis). As to conditions: challenge at pH 4.2; activity of the variant/activity of WT GLA (SEQ ID NO: 5); yeast supernatant. The gist of the method:
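Supernatants from INVSc1 yeast secreting GLA variants were challenged at 37° C. for 1-3 h in McIlvaine buffer at pH 3.3-4.3. Residual activity was then measured on 4 mM MUGal substrate stock at pH 4.8 with citrate buffer pH 4.3, over 30-180 min at 37° C. Reactions were quenched with sodium carbonate and read by fluorescence (Ex 355/Em 448 nm).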

B1: 77 (protein)
chain: LDNGLARTPTMGWLHWERFMCNLDCQEEPDSCISEKLFMEMAELMVSEGWKDAGYEYLCIDDCWMAPQRDSEGRLQADPQRFPHGIRQLANYVHSKGLKLGIYADVGNKTCAGFPGSFGYYDIDAQTFADWGVDLLKFDGCYCDSLENLADGYKHMSLALNRTGRSIVYSCEWPLYMWPFQKPNYTEIRQYCNHWRNFADIDDSWTSIKSILDWTSFNQERIVDVAGPGGWNDPDMLVIGNFGLSWNQQVTQMALWAIMAAPLFMSNDLRHISPQAKALLQDKDVIAINQDPLGKQGYQLRQGDNFEVWERPLSGLAWAVAMINRQEIGGPRSYTIAVASLGKGVACNPACFITQLLPSKRKLGFYEWTSRLRSHINPTGTVLLQLENTMQMSKDLLL
modifications: Synthetic Polypeptide sequence of Variant No. 77 of mature Human GLA
On to B1, for which the “Relative Activity of GLA Variants After No Challenge (NC)” value in data set [1] is “+ (+ = 0.5 to 1.5 relative activity over WT GLA (SEQ ID NO: 5))”. The “Relative Activity of GLA Variants After Challenge at pH 7.1” value (from here on “Relative Activity … at pH 7.1”) in data set [2] is given as “+ (+ = 0.5 to 1.5 relative activity over WT GLA (SEQ ID NO: 5))”. Also, in data set [3], the “Relative Activity of GLA Variants After Challenge at pH 4.2” value (shortened to “Relative Activity … at pH 4.2”) was “++ (++ = >1.5 to 2.5 relative activity over WT GLA (SEQ ID NO: 5))”.

B2: 82 (protein)
chain: LDNGLARTPTMGWLHWERFMCNLDCQEEPDSCISEDLFMEMAELMVSEGWKDAGYEYLCIDDCWMAPQRDSEGRLQADPQRFPHGIRQLANYVHSKGLKLGIYADVGNKTCAGFPGSFGYYDIDAQTFADWGVDLLKFDGCYCDSLENLADGYKHMSLALNRTGRSIVYSCEWPLYMWPFQKPNYTEIRQYCNHWRNFADIDDSWKSIKSILDWTSFNQERIVDVAGPGGWNDPDMLVIGNFGLSWNQQVTQMALWAIMAAPLFMSNDLRHISPQAKALLQDKDVIAINQDPLGKQGYQLRQGDNFEVWERPLSGLAWAVAMINRQEIGGPRSYTIAVASLGKGVACNPACFITQLLPVKRKLGFYEWTSRLRSHINPTGTVLLQLENTMQMSKDLLL
modifications: Synthetic Polypeptide sequence of Variant No. 82 of mature Human GLA
In the case of B2, in data set [1], the “Relative Activity of GLA Variants After No Challenge (NC)” value was “+ (+ = 0.5 to 1.5 relative activity over WT GLA (SEQ ID NO: 5))”. Further, in data set [2], the “Relative Activity … at pH 7.1” value is “+ (+ = 0.5 to 1.5 relative activity over WT GLA (SEQ ID NO: 5))”. Besides, the “Relative Activity … at pH 4.2” value in data set [3] is recorded as “+ (+ = 0.5 to 1.5 relative activity over WT GLA (SEQ ID NO: 5))”.

B3: 78 (protein)
chain: LDNGLARTPTMGWLHWERFMCNLDCQEEPDSCISEKLFMEMAELMVSEGWKDAGYEYLCIDDCWMAPQRDSEGRLQADPQRFPHGIRQLANYVHSKGLKLGIYADVGNKTCAGFPGSFGYYDIDAQTFADWGVDLLKFDGCYCDSLENLADGYKHMSLALNRTGRSIVYSCEWPLYMWPFQKPNYTEIRQYCNHWRNFADIDDSWKSIKSILDWTSFNQERIVDVAGPGGWNDPDMLVIGNFGLSWNQQVTQMALWAIMAAPLFMSNDLRHISPQAKALLQDKDVIAINQDPLGKQGYQLRQGDNFEVWERPLSGLAWAVAMINRQEIGGPRSYTIAVASLGDGVACNPACFITQLLPVKRKLGFYEWTSRLRSHINPTGTVLLQLENTMQMSKDLLL
modifications: Synthetic Polypeptide sequence of Variant No. 78 of mature Human GLA
With B3, in data set [1], the “Relative Activity of GLA Variants After No Challenge (NC)” value is “++ (++ = >1.5 to 2.5 relative activity over WT GLA (SEQ ID NO: 5))”. Besides, the “Relative Activity … at pH 7.1” value in data set [2] was “++ (++ = >1.5 to 2.5 relative activity over WT GLA (SEQ ID NO: 5))”. In data set [3], the “Relative Activity … at pH 4.2” value is “++ (++ = >1.5 to 2.5 relative activity over WT GLA (SEQ ID NO: 5))”.

B4: 80 (protein)
chain: LDNGLARTPTMGWLHWERFMCNLDCQEEPDSCISEKLFMEMAELMVSEGWKDAGYEYLCIDDCWMAPQRDSEGRLQADPQRFPHGIRQLANYVHSKGLKLGIYADVGNKTCAGFPGSFGYYDIDAQTFADWGVDLLKFDGCYCDSLENLADGYKHMSLALNRTGRSIVYSCEWPLYMWPFQKPNYTEIRQYCNHWRNFADIDDSWKSIKSILDWTSFNQERIVDVAGPGGWNDPDMLVIGNFGLSWNQQVTQMALWAIMAAPLFMSNDLRHISPQAKALLQDKDVIAINQDPLGKQGYQLRQGDNFEVWERPLSGLAWAVAMINRQEIGGPRSYTIAVASLGKGVACNPACFITQLLPVKRQLGFYEWTSRLRSHINPTGTVLLQLENTMQMSKDLLL
modifications: Synthetic Polypeptide sequence of Variant No. 80 of mature Human GLA
With B4, the “Relative Activity of GLA Variants After No Challenge (NC)” value in data set [1] is “+ (+ = 0.5 to 1.5 relative activity over WT GLA (SEQ ID NO: 5))”. Further, the “Relative Activity … at pH 7.1” value in data set [2] is on record as “+ (+ = 0.5 to 1.5 relative activity over WT GLA (SEQ ID NO: 5))”. Moreover, the “Relative Activity … at pH 4.2” value in data set [3] is “+ (+ = 0.5 to 1.5 relative activity over WT GLA (SEQ ID NO: 5))”.

B5: 79 (protein)
chain: LDNGLARTPTMGWLHWERFMCNLDCQEEPDSCISEKLFMEMAELMVSEGWKDAGYEYLCIDDCWMAPQRDSEGRLQADPQRFPHGIRQLANYVHSKGLKLGIYADVGNKTCAGFPGSFGYYDIDAQTFADWGVDLLKFDGCYCDSLENLADGYKHMSLALNRTGRSIVYSCEWPLYMWPFQKPNYTEIRQYCNHWRNFADIDDSWKSIKSILDWTSFNQERIVDVAGPGGWNDPDMLVIGNFGLSWNQQVTQMALWAIMAAPLFMSNDLRHISPQAKALLQDKDVIAINQDPLGKQGYQLRQGDNFEVWERPLSGLAWAVAMINRQEIGGPRSYTIAVASLGGGVACNPACFITQLLPVKRKLGFYEWTSRLRSHINPTGTVLLQLENTMQMSKDLLL
modifications: Synthetic Polypeptide sequence of Variant No. 79 of mature Human GLA
Regarding B5, in data set [1], the “Relative Activity of GLA Variants After No Challenge (NC)” value was “++ (++ = >1.5 to 2.5 relative activity over WT GLA (SEQ ID NO: 5))”. The “Relative Activity … at pH 7.1” value in data set [2] is reported as “++ (++ = >1.5 to 2.5 relative activity over WT GLA (SEQ ID NO: 5))”. Further, the “Relative Activity … at pH 4.2” value in data set [3] is listed as “++ (++ = >1.5 to 2.5 relative activity over WT GLA (SEQ ID NO: 5))”.

B6: 83 (protein)
chain: LDNGLARTPTMGWLHWERFMCNLDCQEEPDSCISEELFMEMAELMVSEGWKDAGYEYLCIDDCWMAPQRDSEGRLQADPQRFPHGIRQLANYVHSKGLKLGIYADVGNKTCAGFPGSFGYYDIDAQTFADWGVDLLKFDGCYCDSLENLADGYKHMSLALNRTGRSIVYSCEWPLYMWPFQKPNYTEIRQYCNHWRNFADIDDSWKSIKSILDWTSFNQERIVDVAGPGGWNDPDMLVIGNFGLSWNQQVTQMALWAIMAAPLFMSNDLRHISPQAKALLQDKDVIAINQDPLGKQGYQLRQGDNFEVWERPLSGLAWAVAMINRQEIGGPRSYTIAVASLGKGVACNPACFITQLLPVKRKLGFYEWTSRLRSHINPTGTVLLQLENTMQMSKDLLL
modifications: Synthetic Polypeptide sequence of Variant No. 83 of mature Human GLA
Turning to B6, the “Relative Activity of GLA Variants After No Challenge (NC)” value in data set [1] is “+ (+ = 0.5 to 1.5 relative activity over WT GLA (SEQ ID NO: 5))”. For the same molecule, the “Relative Activity … at pH 7.1” value in data set [2] is reported as “+ (+ = 0.5 to 1.5 relative activity over WT GLA (SEQ ID NO: 5))”. Moreover, the “Relative Activity … at pH 4.2” value in data set [3] is given as “++ (++ = >1.5 to 2.5 relative activity over WT GLA (SEQ ID NO: 5))”.

B7: 81 (protein)
chain: LDNGLARTPTMGWLHWERFMCNLDCQEEPDSCISEKLFMEMAELMVSEGWKDAGYEYLCIDDCWMAPQRDSEGRLQADPQRFPHGIRQLANYVHSKGLKLGIYADVGNKTCAGFPGSFGYYDIDAQTFADWGVDLLKFDGCYCDSLENLADGYKHMSLALNRTGRSIVYSCEWPLYMWPFQKPNYTEIRQYCNHWRNFADIDDSWKSIKSILDWTSFNQERIVDVAGPGGWNDPDMLVIGNFGLSWNQQVTQMALWAIMAAPLFMSNDLRHISPQAKALLQDKDVIAINQDPLGKQGYQLRQGDNFEVWERPLSGLAWAVAMINRQEIGGPRSYTIAVASLGKGVACNPACFITQLLPVKRRLGFYEWTSRLRSHINPTGTVLLQLENTMQMSKDLLL
modifications: Synthetic Polypeptide sequence of Variant No. 81 of mature Human GLA
B7: the “Relative Activity of GLA Variants After No Challenge (NC)” value in data set [1] is reported as “+ (+ = 0.5 to 1.5 relative activity over WT GLA (SEQ ID NO: 5))”. The “Relative Activity … at pH 7.1” value in data set [2] was “+ (+ = 0.5 to 1.5 relative activity over WT GLA (SEQ ID NO: 5))”. Also, the “Relative Activity … at pH 4.2” value in data set [3] is “+ (+ = 0.5 to 1.5 relative activity over WT GLA (SEQ ID NO: 5))”.

B8: 85 (protein)
chain: LDNGLARTPTMGWLHWERFMCNLDCQEEPDSCISEKLFMEMAELMVSEGWKDAGYEYLCIDDCWMAPQRDSEGRLQADPQRFPHGIRQLANYVHSKGLKLGIYADVGNKTCAGFPGSFGYYDIDAQTFADWGVDLLKFDGCYCDSLENLADGYKHMSLALNRTGRSIVYSCEWPLYMWPFQKPNYTEIRQYCNHWRNFADIDDSWKSIKSILDWTSFNQERIVDVAGPGGWNDPDMLVIGNFGLSWNQQVTQMALWAIMAAPLFMSNDLRHISPQAKALLQDKDVIAINQDPLGKQGYQLRQGDNFEVWERPLSGLAWAVAMINRQEIGGPRSYTIAVASLGKGVACNPACFITQLLPVKRKLGFYEWTSRLRSHINPTGTVLLQLENTMQMSKGLLL
modifications: Synthetic Polypeptide sequence of Variant No. 85 of mature Human GLA
For B8, the “Relative Activity of GLA Variants After No Challenge (NC)” value in data set [1] is listed as “+ (+ = 0.5 to 1.5 relative activity over WT GLA (SEQ ID NO: 5))”. Besides, the “Relative Activity … at pH 7.1” value in data set [2] is given as “+ (+ = 0.5 to 1.5 relative activity over WT GLA (SEQ ID NO: 5))”. Moreover, the “Relative Activity … at pH 4.2” value in data set [3] is reported as “+ (+ = 0.5 to 1.5 relative activity over WT GLA (SEQ ID NO: 5))”.

Source of the values: patent publication US11278600B2, “Human alpha-galactosidase variants” (Codexis, Inc., priority 2014, dated 2022).
